Laboratory results reported in patent US20160145654.

Molecular target: IL-2-phaP fusion polypeptide on the surface of polymer particles (PHA granules), P04351
Sequence (P04351 whole entry, looked up, the tested form may be a part): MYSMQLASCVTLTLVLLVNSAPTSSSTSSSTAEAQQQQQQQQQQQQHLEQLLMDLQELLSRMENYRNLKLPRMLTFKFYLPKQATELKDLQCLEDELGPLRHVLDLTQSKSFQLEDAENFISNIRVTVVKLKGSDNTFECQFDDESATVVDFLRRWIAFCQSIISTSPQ

B1: bovine enterokinase (protein)
chain: IVGGSDSREGAWPWVVALYFDDQQVCGASLVSRDWLVSAAHCVYGRNMEPSKWKAVLGLHMASNLTSPQIETRLIDQIVINPHYNKRRKNNDIAMMHLEMKVNYTDYIQPICLPEENQVFPPGRICSIAGWGALIYQGSTADVLQEADVPLLSNEKCQQQMPEYNITENMVCAGYEAGGVDSCQGDSGGPLMCQENNRWLLAGVTSFGYQCALPNRPGVYARVPRFTEWIQSFLH
fluorescence of IL-2-phaP particles stained with anti-IL-2-PE after 1 hr incubation with enterokinase (FACS): a smaller shift in fluorescence intensity indicates that a proportion of IL-2 has been cleaved from the particles
fluorescence of IL-2-phaP particles stained with anti-IL-2-PE after 16 hours incubation with enterokinase (FACS): no IL-2 is detectable on the surface of the polymer particles, indicating the IL-2 has been cleaved from the polymer particles
